Assay results: paper doi:10.1101/787937

B1: GG(m6A)CU (ssRNA)
RNA: GGACU
modifications: m6A at position 3
B2: GG(m6A)C (ssRNA)
RNA: GGAC
modifications: m6A at position 3
B3: (m6A)CU (ssRNA)
RNA: ACU
modifications: m6A at position 1
B4: G(m6A)C (ssRNA)
RNA: GAC
modifications: m6A at position 2
B5: G(m6A)CU (ssRNA)
RNA: GACU
modifications: m6A at position 2

What was measured:
YTHDC1 YTH domain [1] = target: T1, YTHDC1 YTH domain (human, UniProt Q96MU7 345-509); assay: ITC
YTHDC1 YTH domain [2] = target: T1, YTHDC1 YTH domain; assay: X-ray crystallography

Binder	Kd (YTHDC1 YTH domain [1]) [nM]	binding result (YTHDC1 YTH domain [2])
B1	500	
B2		binds
B3		binds
B4		binds
B5		binds
